According to patent publication US11034762 (CENTIVAX, dated 2021):
Where a chain is given by its changes, count along the chain named.

T1: MERS Receptor Binding Domain (RBD) protein (MERS virus, UniProt K9N5Q8 367-606)
T1 construct: also called Middle East Respiratory Syndrome (MERS) virus
T1 sequence: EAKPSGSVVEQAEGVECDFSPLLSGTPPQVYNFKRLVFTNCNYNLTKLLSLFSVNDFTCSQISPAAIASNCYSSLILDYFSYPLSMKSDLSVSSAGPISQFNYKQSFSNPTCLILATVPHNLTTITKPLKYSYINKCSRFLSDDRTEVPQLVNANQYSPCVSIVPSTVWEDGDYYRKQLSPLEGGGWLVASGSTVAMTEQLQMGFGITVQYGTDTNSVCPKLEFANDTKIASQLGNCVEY

B1: COVID19_P21_B01 (scFv, V domains shown)
VH: QVQLVQSGAEVKKPGSSVKVSCKASGYTFSTYWIGWVRQAPGQGLEWMGWIDPNSGGTNYAQKFQGRVTITADESTSTAYMELSSLRSEDTAVYYCAGGSGISTPMDVWGQGTLVTVSS
VL: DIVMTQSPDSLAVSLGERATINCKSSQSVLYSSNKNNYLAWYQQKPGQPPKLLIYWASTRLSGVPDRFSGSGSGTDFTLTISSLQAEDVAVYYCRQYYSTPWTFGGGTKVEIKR
B2: COVID19_P09_C05 (scFv, V domains shown)
VH: B1 VH with T28S, T31D, W33Y, G35H
VL: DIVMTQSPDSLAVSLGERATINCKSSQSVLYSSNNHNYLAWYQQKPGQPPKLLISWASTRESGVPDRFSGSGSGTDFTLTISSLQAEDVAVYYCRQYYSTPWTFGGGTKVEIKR
B3: COVID19_P09_B09 (scFv, V domains shown)
VH: QVQLVQSGAEVKKPGSSVKVSCKASGYRFTDYHLHWVRQAPGQGLEWMGGIVPFSGTTNFAQKFQGRVTITADESTSTAYMELSSLRSEDTAVYYCAGGSGETTPMDVWGQGTLVTVSS
VL: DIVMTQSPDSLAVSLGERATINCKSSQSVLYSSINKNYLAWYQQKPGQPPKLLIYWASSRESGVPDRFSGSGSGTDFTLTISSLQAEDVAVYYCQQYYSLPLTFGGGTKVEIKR
B4: COVID19_P10_B10 (scFv, V domains shown)
VH: QVQLVQSGAEVKKPGSSVKVSCKASGYSFSDYHVHWVRQAPGQGLEWVGMIIPRHGGTAYAQKFQGRVTITADESTSTAYMELSSLRSEDTAVYYCAGGSGISTPMDVWGQGTLVTVSS
VL: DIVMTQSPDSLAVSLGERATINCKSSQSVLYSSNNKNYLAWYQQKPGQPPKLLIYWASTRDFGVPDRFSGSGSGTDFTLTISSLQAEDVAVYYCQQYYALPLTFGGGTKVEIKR
B5: COVID19_P09_G12 (scFv, V domains shown)
VH: QVQLVQSGAEVKKPGSSVKVSCKASGYPFTNYGISWVRQAPGQGLEWMGWMNPNSGNTGYAQKFQGRVTITADESTSTAYMELSSLRSEDTAVYYCATLSGISTPMDVWGQGTLVTVSS
VL: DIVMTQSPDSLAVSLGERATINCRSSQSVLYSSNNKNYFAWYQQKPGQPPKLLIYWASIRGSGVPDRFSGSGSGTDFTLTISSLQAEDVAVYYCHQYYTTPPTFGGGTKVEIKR
B6: COVID19_P09_B10 (scFv, V domains shown)
VH: B4 VH with S30T, V34I, V48M, G49A, I52V, H55G, G57S, A59T
VL: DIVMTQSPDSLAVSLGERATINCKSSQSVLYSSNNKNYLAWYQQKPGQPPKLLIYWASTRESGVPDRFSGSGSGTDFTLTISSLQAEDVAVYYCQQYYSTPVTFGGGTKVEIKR
B7: COVID19_P10_B08 (scFv, V domains shown)
VH: B1 VH with Y27G, T28G, S30I, D52N, N59K, M106I
VL: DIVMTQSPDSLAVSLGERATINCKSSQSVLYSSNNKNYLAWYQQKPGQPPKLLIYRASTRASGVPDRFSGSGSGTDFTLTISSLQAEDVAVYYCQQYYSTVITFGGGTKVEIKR
B8: COVID19_P21_A05 (scFv, V domains shown)
VH: B1 VH with Y27G, T28G, S30I, W50I, D52Y, N54G, S55D, G57E, N59R, A61S
VL: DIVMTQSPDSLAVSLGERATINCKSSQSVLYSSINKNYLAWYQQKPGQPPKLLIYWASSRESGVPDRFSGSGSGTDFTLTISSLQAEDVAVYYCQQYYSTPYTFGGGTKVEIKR
B9: COVID19_P09_G05 (scFv, V domains shown)
VH: QVQLVQSGAEVKKPGSSVKVSCKASGYTFTGHYMHWVRQAPGQGLEWMGIIYPGDSEARYSQKFQGRVTITADESTSTAYMELSSLRSEDTAVYYCAGGSGISTPMDVWGQGTLVTVSS
VL: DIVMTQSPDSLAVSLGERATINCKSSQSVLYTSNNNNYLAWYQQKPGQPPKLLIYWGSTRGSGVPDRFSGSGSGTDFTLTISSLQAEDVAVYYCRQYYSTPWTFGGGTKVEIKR
B10: COVID19_P21_F02 (scFv, V domains shown)
VH: B9 VH with G31S, H32Y, Y33G, M34I, H35S, S56G, E57T, A58T, A97L, G98P
VL: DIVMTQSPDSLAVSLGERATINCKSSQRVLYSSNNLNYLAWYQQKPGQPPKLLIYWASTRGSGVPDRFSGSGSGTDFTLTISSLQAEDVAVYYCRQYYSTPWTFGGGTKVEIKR
B11: COVID19_P21_A04 (scFv, V domains shown)
VH: B9 VH with T28G, T30I, G31T, H32Y, Y33W, M34I, H35G, A58T, I102L, S103L
VL: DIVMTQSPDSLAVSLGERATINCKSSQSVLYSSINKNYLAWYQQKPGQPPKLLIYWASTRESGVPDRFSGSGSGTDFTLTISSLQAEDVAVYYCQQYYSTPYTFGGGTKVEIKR
B12: COVID19_P21_B11 (scFv, V domains shown)
VH: B9 VH with T28G, T30I, G31T, H32Y, Y33W, M34I, H35G, A58T, G99S, S100D
VL: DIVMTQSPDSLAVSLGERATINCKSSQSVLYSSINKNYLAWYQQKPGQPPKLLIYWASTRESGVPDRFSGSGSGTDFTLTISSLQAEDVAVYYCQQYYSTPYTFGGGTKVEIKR
B13: COVID19_P09_C08 (scFv, V domains shown)
VH: B1 VH with T28G, S30I, W50I, D52Y, N54G, S55D, G56S, G57E, N59R
VL: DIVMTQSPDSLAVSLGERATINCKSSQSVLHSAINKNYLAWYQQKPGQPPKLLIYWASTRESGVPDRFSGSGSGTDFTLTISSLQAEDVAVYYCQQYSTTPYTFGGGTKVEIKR
B14: COVID19_P21_C09 (scFv, V domains shown)
VH: B9 VH with T28G, T30I, G31S, H32Y, Y33W, M34I, H35G, A58T, S103L, T104E
VL: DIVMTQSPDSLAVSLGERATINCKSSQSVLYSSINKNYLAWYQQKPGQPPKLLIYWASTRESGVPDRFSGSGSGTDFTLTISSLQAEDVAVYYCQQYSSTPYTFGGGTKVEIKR
B15: COVID19_P10_B04 (scFv, V domains shown)
VH: QVQLVQSGAEVKKPGSSVKVSCKASGYGFISYWIGWVRQAPGQGLEWMGIIYPGDGETRYSQKFQGRVTITADESTSTAYMELSSLRSEDTAVYYCAGSDGISTPMDVWGQGTLVTVSS
VL: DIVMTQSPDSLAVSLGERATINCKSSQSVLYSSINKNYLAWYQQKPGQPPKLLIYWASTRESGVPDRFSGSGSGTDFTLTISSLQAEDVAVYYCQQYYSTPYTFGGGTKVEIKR
B16: COVID19_P21_E07 (scFv, V domains shown)
VH: B15 VH with S31T, G56S, S99G, D100S
VL: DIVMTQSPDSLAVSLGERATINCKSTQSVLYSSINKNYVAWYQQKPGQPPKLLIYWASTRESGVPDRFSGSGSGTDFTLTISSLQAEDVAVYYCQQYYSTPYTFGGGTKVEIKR
B17: COVID19_P21_H02 (scFv, V domains shown)
VH: B15 VH with S31T, G56S, S61A, S99G, D100S, I102L, S103Y
VL: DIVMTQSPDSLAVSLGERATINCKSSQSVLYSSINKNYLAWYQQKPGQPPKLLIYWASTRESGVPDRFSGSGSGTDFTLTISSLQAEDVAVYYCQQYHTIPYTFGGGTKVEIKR
B18: COVID19_P22_F11 (scFv, V domains shown)
VH: B15 VH with Y27G, S31T, G35S, T58A, S99G, D100S, S103I, T104Q
VL: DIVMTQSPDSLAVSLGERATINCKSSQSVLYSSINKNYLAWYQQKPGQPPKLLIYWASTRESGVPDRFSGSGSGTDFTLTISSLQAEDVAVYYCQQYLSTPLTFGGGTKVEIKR
B19: COVID19_P09_G04 (scFv, V domains shown)
VH: B15 VH with S31T, G56S, R59N, S99G, D100S, I102L, S103F
VL: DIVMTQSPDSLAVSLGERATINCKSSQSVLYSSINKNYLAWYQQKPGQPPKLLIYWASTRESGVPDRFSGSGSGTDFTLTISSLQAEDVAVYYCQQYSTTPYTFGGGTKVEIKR
B20: COVID19_P21_A10 (scFv, V domains shown)
VH: B15 VH with S31T, T58A, S99G, D100S
VL: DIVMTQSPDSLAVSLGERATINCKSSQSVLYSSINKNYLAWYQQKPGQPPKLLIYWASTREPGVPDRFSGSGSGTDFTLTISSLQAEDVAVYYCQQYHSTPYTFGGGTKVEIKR
B21: COVID19_P22_D06 (scFv, V domains shown)
VH: B15 VH with Y27G, S31T, G56S, S99G, D100S, I102V, S103L
VL: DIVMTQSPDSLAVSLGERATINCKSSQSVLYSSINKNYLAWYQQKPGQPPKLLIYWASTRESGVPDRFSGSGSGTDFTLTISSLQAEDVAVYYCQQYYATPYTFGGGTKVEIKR
B22: COVID19_P22_E10 (scFv, V domains shown)
VH: B15 VH with Y27G, S31T, S99G, D100S
VL: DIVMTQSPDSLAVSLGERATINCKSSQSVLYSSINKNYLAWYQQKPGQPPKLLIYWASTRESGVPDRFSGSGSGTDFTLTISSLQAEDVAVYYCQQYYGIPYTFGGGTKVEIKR
B23: COVID19_P21_E08 (scFv, V domains shown)
VH: B15 VH with S31T, S99G, D100S
VL: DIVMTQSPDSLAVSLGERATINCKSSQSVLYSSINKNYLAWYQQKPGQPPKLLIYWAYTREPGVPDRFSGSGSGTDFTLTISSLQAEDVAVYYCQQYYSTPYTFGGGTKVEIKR
B24: COVID19_P21_B12 (scFv, V domains shown)
VH: QVQLVQSGAEVKKPGSSVKVSCKASGGTFSSYAISWVRQAPGQGLEWMGMINPGGGNTNYAEKFQGRVTITADESTSTAYMELSSLRSEDTAVYYCAGEWGISTPMDVWGQGTLVTVSS
VL: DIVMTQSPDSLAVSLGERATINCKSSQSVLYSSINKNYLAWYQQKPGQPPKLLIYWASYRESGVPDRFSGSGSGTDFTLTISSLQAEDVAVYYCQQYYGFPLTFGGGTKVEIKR
B25: COVID19_P21_A03 (scFv, V domains shown)
VH: QVQLVQSGAEVKKPGSSVKVSCKASGGTFSNNGLSWVRQAPGQGLEWMGGIIPIFGTANYAQKFQGRVTITADESTSTAYMELSSLRSEDTAVYYCRMGSGISTPMDVWGQGTLVTVSS
VL: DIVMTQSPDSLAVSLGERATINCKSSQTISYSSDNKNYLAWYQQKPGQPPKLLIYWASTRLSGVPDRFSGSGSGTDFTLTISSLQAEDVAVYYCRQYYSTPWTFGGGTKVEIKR

molecular target: T1, MERS Receptor Binding Domain (RBD) …; test: SPR; clone listed as COV2 only at the 21st table, row 59, column 3

Binder	binding result
B1	no binding (tested: up to 300 nM)

molecular target: T2, SARS-CoV-1 Receptor Binding Domain (RBD) protein (SARS-CoV-1, UniProt P59594 306-527); test: as above
T2 construct: also called SARS1

Binder	binding result
B1	no binding (tested: up to 300 nM)

molecular target: T1, MERS Receptor Binding Domain (RBD) …; test: SPR; clone listed as COV2 only at the 21st table, row 57, column 3

Binder	binding result
B2	no binding (tested: up to 300 nM)

molecular target: T2, SARS-CoV-1 Receptor Binding Domain …; test: as above

Binder	binding result
B2	no binding (tested: up to 300 nM)

molecular target: T1, MERS Receptor Binding Domain (RBD) …; test: SPR; clone listed as COV2 only at the 21st table, row 55, column 3

Binder	binding result
B3	no binding (tested: up to 300 nM)

molecular target: T2, SARS-CoV-1 Receptor Binding Domain …; test: as above

Binder	binding result
B3	no binding (tested: up to 300 nM)

molecular target: T1, MERS Receptor Binding Domain (RBD) …; test: SPR; clone listed as COV2 only at the 21st table, row 56, column 3

Binder	binding result
B4	no binding (tested: up to 300 nM)

molecular target: T2, SARS-CoV-1 Receptor Binding Domain …; test: as above

Binder	binding result
B4	no binding (tested: up to 300 nM)

molecular target: T1, MERS Receptor Binding Domain (RBD) …; test: SPR; clone listed as COV2 only at the 21st table, row 53, column 3

Binder	binding result
B5	no binding (tested: up to 300 nM)

molecular target: T2, SARS-CoV-1 Receptor Binding Domain …; test: as above

Binder	binding result
B5	no binding (tested: up to 300 nM)

molecular target: T1, MERS Receptor Binding Domain (RBD) …; test: SPR; clone listed as COV2 only at the 21st table, row 58, column 3

Binder	binding result
B6	no binding (tested: up to 300 nM)

molecular target: T2, SARS-CoV-1 Receptor Binding Domain …; test: as above

Binder	binding result
B6	no binding (tested: up to 300 nM)

molecular target: SARS-CoV-2 Receptor Binding Domain (RBD) protein (SARS-CoV-2, UniProt P0DTC2 319-541); test: not given

Binder	Kd	koff	kon
B2	1.18 nM	0.000185 s⁻¹	157000 M⁻¹ s⁻¹
B6	39.7 nM	0.00323 s⁻¹	81400 M⁻¹ s⁻¹
B7	41.3 nM	0.0217 s⁻¹	527000 M⁻¹ s⁻¹
B1	0.91 nM	5.7e-05 s⁻¹	62400 M⁻¹ s⁻¹
B4	46.2 nM	0.014 s⁻¹	302000 M⁻¹ s⁻¹
B3	22.9 nM	0.000507 s⁻¹	22100 M⁻¹ s⁻¹
B8	41.2 nM	0.0173 s⁻¹	419000 M⁻¹ s⁻¹
B9	11.3 nM	0.000482 s⁻¹	42600 M⁻¹ s⁻¹
B10	26.8 nM	0.000679 s⁻¹	25400 M⁻¹ s⁻¹
B11	35 nM	0.0143 s⁻¹	409000 M⁻¹ s⁻¹
B12	26.3 nM	0.0166 s⁻¹	631000 M⁻¹ s⁻¹
B13	28.7 nM	0.0131 s⁻¹	458000 M⁻¹ s⁻¹
B14	28.5 nM	0.0157 s⁻¹	551000 M⁻¹ s⁻¹
B15	36.2 nM	0.0223 s⁻¹	614000 M⁻¹ s⁻¹
B16	41 nM	0.0155 s⁻¹	378000 M⁻¹ s⁻¹
B17	40.3 nM	0.0124 s⁻¹	308000 M⁻¹ s⁻¹
B18	23.3 nM	0.0093 s⁻¹	400000 M⁻¹ s⁻¹
B19	6.18 nM	0.00381 s⁻¹	616000 M⁻¹ s⁻¹
B20	46.2 nM	0.00729 s⁻¹	158000 M⁻¹ s⁻¹
B21	30.5 nM	0.012 s⁻¹	410000 M⁻¹ s⁻¹
B22	25.3 nM	0.0058 s⁻¹	230000 M⁻¹ s⁻¹
B23	32.8 nM	0.0142 s⁻¹	434000 M⁻¹ s⁻¹
B24	37.6 nM	0.0104 s⁻¹	276000 M⁻¹ s⁻¹
B25	20.6 nM	0.000858 s⁻¹	41700 M⁻¹ s⁻¹
B5	0.4 nM	0.000363 s⁻¹	828000 M⁻¹ s⁻¹

molecular target: T1, MERS Receptor Binding Domain (RBD) …; test: SPR; clone listed as COV2 only at the 21st table, row 11, column 3

Binder	binding result
B18	no binding (tested: up to 300 nM)

molecular target: T2, SARS-CoV-1 Receptor Binding Domain …; test: as above

Binder	binding result
B18	no binding (tested: up to 300 nM)
